# Source: US20050221288A1
# Columns and labels:
# [1] = molecular target: endogenous P-TEFb complex (positive transcription elongation factor b) (UniProt P50750); experiment: cell-based or functional assay
# [2] = molecular target: endogenous P-TEFb complex (positive transcription elongation factor b) (UniProt P50750); experiment: GST pull-down of endogenous P-TEFb from cell extract, read out by the Tat-associated kinase assay
# UniProt P50750, sequence (P50750 whole entry, chain 1 of 2): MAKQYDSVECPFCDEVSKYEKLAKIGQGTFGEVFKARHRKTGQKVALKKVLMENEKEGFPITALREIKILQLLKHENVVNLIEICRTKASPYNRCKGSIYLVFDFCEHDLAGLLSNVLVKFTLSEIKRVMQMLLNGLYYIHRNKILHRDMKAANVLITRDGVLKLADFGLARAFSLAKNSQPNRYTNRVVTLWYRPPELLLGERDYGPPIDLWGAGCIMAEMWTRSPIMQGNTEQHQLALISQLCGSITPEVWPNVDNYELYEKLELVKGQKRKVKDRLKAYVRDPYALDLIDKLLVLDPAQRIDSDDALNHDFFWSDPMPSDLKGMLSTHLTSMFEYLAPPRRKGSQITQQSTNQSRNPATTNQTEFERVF
# UniProt P50750, sequence (O60563 whole entry, chain 2 of 2, further chain): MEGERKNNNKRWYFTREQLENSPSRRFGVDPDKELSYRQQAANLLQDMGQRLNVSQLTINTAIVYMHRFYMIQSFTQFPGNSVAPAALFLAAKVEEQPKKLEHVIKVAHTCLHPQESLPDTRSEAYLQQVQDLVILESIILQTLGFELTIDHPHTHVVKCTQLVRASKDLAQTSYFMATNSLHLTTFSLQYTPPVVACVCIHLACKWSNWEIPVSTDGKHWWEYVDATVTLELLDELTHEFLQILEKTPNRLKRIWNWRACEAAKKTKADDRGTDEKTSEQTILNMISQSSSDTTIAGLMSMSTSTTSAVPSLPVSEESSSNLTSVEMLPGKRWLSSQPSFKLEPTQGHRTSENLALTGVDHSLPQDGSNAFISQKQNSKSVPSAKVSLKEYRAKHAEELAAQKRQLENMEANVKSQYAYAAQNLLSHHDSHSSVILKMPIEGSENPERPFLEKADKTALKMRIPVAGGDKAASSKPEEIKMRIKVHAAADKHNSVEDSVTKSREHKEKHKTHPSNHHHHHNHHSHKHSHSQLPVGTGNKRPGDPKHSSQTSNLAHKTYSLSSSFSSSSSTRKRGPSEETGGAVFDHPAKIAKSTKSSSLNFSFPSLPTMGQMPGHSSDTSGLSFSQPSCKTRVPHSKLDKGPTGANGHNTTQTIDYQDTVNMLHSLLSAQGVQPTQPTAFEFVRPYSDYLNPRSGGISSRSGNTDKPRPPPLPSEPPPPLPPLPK
substance,measurement,setting,value
GST-Tat T23N (1-72) (from UniProt P04608 1-72),extent of CTD phosphorylation (Tat-associated kinase assay after GST pull-down; U937 or 293 cell extract) (fold over wild-type Tat),[1],3.5
same,fold stronger binding than wild-type Tat,[2],3.5 fold
